From patent publication US20230374127A1 (LG CHEM, published 2023) come the findings set out here.

This test has as its target T1, human LILRB1 protein (LILRB1-His, RnD systems Cat. No. 8989-T2) (human, UniProt Q8NHL6 24-458, limits assumed).
T1 construct: Bought protein; also called LILRB1 antigen; the antigen, LILRB1; not shown: His tag
In words: SPR, Biacore T200; antibody captured by anti-human IgG (Fc), LILRB1-His injected 25-400 nM. The method, then:
The binding affinities of the 19 antibodies, which were selected in Example 3, to the antigen, LILRB1, were measured using Biacore T200 (GE healthcare). An anti-human IgG (Fc) antibody (GE healthcare, Cat. No. BR-1008-39, final concentration of 25 μg/mL) was flowed at the flow rate of 5 μL/min for 360 seconds to be immobilized at 5000-7000 RU on Series S Sensor Chip CM5 (GE healthcare, Cat. No. BR-1005-30) using Amine Coupling Kit (GE healthcare, Cat. No. BR-1000-50).
Background: SPR reads the build-up and loss of mass on a sensor chip optically.

T1 sequence (Q8NHL6 24-458 limits assumed): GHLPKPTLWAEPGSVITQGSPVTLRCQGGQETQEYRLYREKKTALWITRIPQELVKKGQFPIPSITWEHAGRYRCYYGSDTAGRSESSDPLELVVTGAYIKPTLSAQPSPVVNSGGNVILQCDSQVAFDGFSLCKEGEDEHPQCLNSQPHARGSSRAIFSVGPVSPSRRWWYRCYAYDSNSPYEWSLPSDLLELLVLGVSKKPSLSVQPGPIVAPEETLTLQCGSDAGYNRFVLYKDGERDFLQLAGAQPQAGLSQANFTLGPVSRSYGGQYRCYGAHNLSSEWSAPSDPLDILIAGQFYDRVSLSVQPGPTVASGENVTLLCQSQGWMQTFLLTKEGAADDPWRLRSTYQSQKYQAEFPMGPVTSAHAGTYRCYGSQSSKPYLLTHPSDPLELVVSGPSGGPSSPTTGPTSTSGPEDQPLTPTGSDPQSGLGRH

B1: anti-LILRB1 antibody No. 10 (antibody, human IgG4 S228P, kappa, F234A L235A, V domains shown)
VH: QVQLVQSGAEVKKPGSSVKVSCKASGGTFSSHYMHWVRQAPGQGLEWMGWISPYLGSTNYAQKFQGRVTITADESTSTAYMELSSLRSEDTAVYYCARDETGSTYGAFDYWGQGTLVTVSS
VL: DIQMTQSPSSLSASVGDRVTITCRASQSISNYLNWYQQKPGKAPKLLIYAASNLQSGVPSRFSGSGSGTDFTLTISSLQPEDFATYYCQQSYSFPFTFGQGTKVEIKR
notes: Human IgG4 / kappa, expressed in ExpiCHO-S cells; also called clone 10
For the molecule B1, the Kd is 24.1 nM, the koff was 0.000298 s⁻¹ and the kon was determined as 12300 M⁻¹ s⁻¹.

For orientation: Kd means the constant that tells how readily two partners part at equilibrium. The low end stands for a tighter complex, the high end for a looser complex. By koff is commonly meant the rate constant with which the complex falls apart. As usually defined, the kon is the second-order rate constant of association.
